Laboratory results: patent US10543284B2, “Anti-c-Met antibody and anti-c-Met antibody-cytotoxic drug conjugate and pharmaceutical use thereof” (Suzhou Suncadia Biopharmaceuticals Co., Ltd., priority 2015, dated 2020)

Tests used:
[1] = LC-MS analysis of deamination (biophysical stability); assay type: physicochemical; settings: Proportion of deamination molecules; 0.66-1.0% is within background
Description: To evaluate the biophysical stability of the antibodies of the invention, such as the presence of glycosylation and deamination and stability, LC-MS analysis was used.
The molecular weight of the heavy and light chains was detected by LC-MS to analyze glycosylation. Deamination was analyzed by LC-MS at 4° C. for a long time (at least 3 months), or at 40° C. for 21 days under an accelerated condition. Samples treated with different conditions were diluted to 2 mg/ml with pH7.2 Tris-HCl, and added into 10 mM TCEP and 6M urea (AMRESCO, Cat #0378)3, then the samples were incubated for 20 minutes at […]. IAA(Sigma-Aldrich, Cat # I1149) with a final concentration of 20 mM was added and was incubated for 15 minutes in darkness to protect the sulfhydryl group. The pH was adjusted using pH7.2 Tris-HCl, and protease (Sigma-Aldrich, Cat # T6567) was added at a proportion by weight of 10:1 (protein: enzyme). The samples were incubated at 37° C. for 25 minutes, and then formic acid with a final concentration of 0.1% (Fluca, Cat #94318) was added to terminate the reactions. Samples were centrifuged and analyzed by LC-MS.
BiopharmaLynx was used to analyze the presence of deamination. […] The peak area was obtained by integration, and the percentages of deamination and oxidation were calculated.

[2] = test system: c-Met tyrosine residue 1349; experiment: Agonist test: c-Met phosphorylation in A549 cells; assay type: cell-based, human; settings: Antibody 20 μg/ml; activation by HGF (200 ng/ml) set as 100%
Description: The binding of HGF to c-Met activates both tyrosine phosphorylation of the c-Met molecule and the c-Met signaling pathway. Therefore, the activation of c-Met by HGF was used as a positive control of the agonist experiment, and human lung cancer cell line […] was used to evaluate the induced phophorylation of c-Met tyrosine residue 1349.
A549 cells were suspended in solution containing Ham's F12K, 2 mM glutamine (Invitrogen, #21127-022), and 10% (v/v) FBS (GIBCO, #10099141). 0.2 mL of cell suspension was taken and added to a 96-well plate (Corning, #3599), and the cell concentration was 60000 cells/well. The plate was incubated for 24 hours under 5% CO2 at 37° C. After 24 hours, the media in the 96-well plate was discarded, and 100 μl low serum medium (Ham's F12K+2 mM glutamine+0.5% FBS) was added. The cells were starved for 6 hours under 5% CO2 at 37° C. Antibodies were diluted using the above low serum medium to a final concentration of 20 μg/ml. The HGF concentration in the positive control was 200 ng/ml. The plate was incubated for 15 minutes at 37° C. […] After cell lysis, c-Met tyrosine phosphorylation was detected by ELISA. […] Data was read by a […] microplate reader (Supplier: Moleculer Devices; Model: MNR0643; Equip ID: TMRP001). […]

H441 cells = experiment: Agonist test: H441 cell migration; assay type: cell-based, human; settings: Antibody 20 μg/ml; migration affected by HGF (200 ng/ml) set as 100%
Source text: If anti c-Met antibodies have agonist activity, the migration ability of cells could be affected. The H441 cell line expressing c-Met is used in the invention to evaluate the ability of c-Met antibodies to affect cell migration. H441 cells (ATCC, Cat No.: HTB-174) were resuspended to 500,000 cells/ml in RPMI 1640 medium (GIBCO, Cat No.: 11835-030) which contains 10% (v/v) FBS (GIBCO, Cat No.: 10099-141) and penicillin-streptomycin (GIBCO, Cat No.: 15070-063). The resuspended H441 cells were added to a 12-well culture plate (Costar, Cat No. 3513) at 1 ml/well, and were cultured for 3 days at 37° C. in 5% CO2. Cells were washed twice with PBS, and RPMI 1640 medium containing 0.5% FBS was added, and the plate was cultured for 16 hours at 37° C. in 5% CO2. The bottom of each well was scratched with 5 ml tips, and the plate was washed once with medium containing low concentration of FBS, and 1 ml of RPMI 1640 medium containing a low concentration of serum was added. The plate was marked, photos were taken for randomly selected scratch areas under an inverted microscope at 4× magnification. This time was set as the starting point. […] The percentage of cell migration was measured as the migration distance relative to the starting point divided by the migration distance of the test group relative to the starting point, and then multiplied by 100.

B1: Ab-9: humanized anti c-Met antibody: heavy chain sequence of SEQ ID NO: 23 and light chain sequence of SEQ ID NO: 26 (antibody)
heavy: QVTLKESGPVLVKPTETLTLTCTVSGFSLPNYGVHWVRQPPGKALEWLAVIWSGGSTNYAAAFVSRLRISKDTSKSQVVFTMNNMDPVDTATYYCARNHDNPYNYAMDYWGQGTTVTVSSASTKGPSVFPLAPCSRSTSESTAALGCLVKDYFPEPVTVSWNSGALTSGVHTFPAVLQSSGLYSLSSVVTVPSSNFGTQTYTCNVDHKPSNTKVDKTVERKCCVECPPCPAPPVAGPSVFLFPPKPKDTLMISRTPEVTCVVVDVSHEDPEVQFNWYVDGVEVHNAKTKPREEQFNSTFRVVSVLTVVHQDWLNGKEYKCKVSNKGLPAPIEKTISKTKGQPREPQVYTLPPSREEMTKNQVSLTCLVKGFYPSDIAVEWESNGQPENNYKTTPPMLDSDGSFFLYSKLTVDKSRWQQGNVFSCSVMHEALHNHYTQKSLSLSPGK
light: DIVLTQSPASLAVSPGQRATITCRANKSVSTSTYNYLHWYQQKPGQPPKLLIYLASNLASGVPARFSGSGSGTDFTLTINPVEANDTANYYCQHSRDLPPTFGQGTKLEIKRTVAAPSVFIFPPSDEQLKSGTASVVCLLNNFYPREAKVQWKVDNALQSGNSQESVTEQDSKDSTYSLSSTLTLSKADYEKHKVYACEVTHQGLSSPVTKSFNRGEC
modifications: Ab-9 heavy chain; Ab-9 light chain
- Analysis of deamination 4° C., 3.5 months [1]: 0.66%
- Activation of c-Met phosphorylation (%) [2]: 29.9%
- H441 migration (%) (H441 cells): 53%
